Here are results for 30 sequences from the nanobody polyreactivity screen of Harvey et al. (2022).

The data set can be described thus: yeast display, Sf9 membrane polyspecificity reagent, FACS + sequencing; frameworks hold sequencing errors. Summed up: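 Polyreactivity labels are assigned by the sorting gate from which each nanobody was recovered. The gates were low and high (top ~1%), set on anti-HA fluorescence for expression and streptavidin fluorescence for reagent binding. Before sorting, galactose-induced (36–48 hours) yeast display cells were stained for 1 hour at 4 °C with 10% biotinylated, detergent-solubilized Sf9 membrane reagent.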
Turning to “QVQLVESGGGLVQAGGSLRLSCAASGLIFSYNAMGWYRQAPGKERELVAAISYSGGSTYYADSVKGRYTISRDNAKYTVYLQMNSLKPEDTAVYYCAAVLSPDFYYWGQGTQVTVSS”, the “polyreactivity (PSR sort gate)” value is on record as “high polyreactivity”.
As for “QVQLVESGGGLVQAGGSLRLSCAASGLIFTGNTMGWSRQAPGKETELVADITWSDGSTYYADSVKGRFTISRDTENNTVYLQMNSLKPEDTAVYYCAADSVLDRPVLYLWPWYLGDYWGQGTQVTVSS”, the “polyreactivity (PSR sort gate)” value is “low polyreactivity”.
Next, “QVQLVESGGGLVQAGGSLRLSCAASGLIFTPYAMGWYRQAPGKERELVAAINYGGSRTYYADSVKGRFTISRDNAKNTVYLQMNSLKPEDTAVYYCAARGFTLSYVDMYYWGLGTQVTVSS”: “high polyreactivity”.
Next, “QVQLVESGGGLVQAGGSLRLSCAASGLIFTPYPMGWYRQAPGKERELVAAISVSGGRTYYADSVKGRITISRDNEKNTVYLQMNSLKPEDTAVYYCAASDRYGGRDYWGQGTQVTVSS”: “high polyreactivity”.
For the sequence “QVQLVESGGGLVQAGGSLRLSCAASGLIFTRYAMGWYRQAPGKERELVAAISYSGTSTYYADSVKGRFTISRDNAKNTVYLQMNSLKPEDTAVYYCAAAYSRGSGVGRYRLDYWGQGTQVTVSS”, the “polyreactivity (PSR sort gate)” value is “high polyreactivity”.
Next, “QVQLVESGGGLVQAGGSLRLSCAASGLIFTWNAMGWYRQAPGKEREFVAAISTGGSTSYADSVKGRFTISRDNAKNTVYLQMNRLKPEDTAVYYCARDSSIWSHGSWYDYWGQGTQVTVSS”: “low polyreactivity”; “QVQLVESGGGLVQAGGSLRLSCAASGLIFTYYAMGWYRPAPGKERELVASINYSGGSTYYADSVKGRFTISRDNAKNSVYLHMNSLKPEDTAVYYCAARRVTQTEGPMGYWGQGTQVTVSS”: “low polyreactivity”.
Next, “QVQLVESGGGLVQAGGSLRLSCAASGLIFVAFAMGWYRQAPGKERELVAAISRSGGSTYYADSVKGRFTISRDNAKNTVYLQMNSLKPEDTAVYYCAKYYGARHVDDDYWGQGTQVTVSS”: “high polyreactivity”.
As for “QVQLVESGGGLVQAGGSLRLSCAASGLIFVANAMGWYRQAPGKERELVAAISRSGGITYYADSVKGRFTISRDNAKNTVYLQMNSLKPEDTAVYYCAAELVYFFIYDYWGQGTQVTVSS”, the entry is “low polyreactivity”; as for “QVQLVESGGGLVQAGGSLRLSCAASGLIFVAYAMGWYRQAPGKERELVAAISRNGGSTYYADSVKGRFTISRDNAKNTVYLQMNSLKPEDTAVYYCAARYAYYTARYTQVKGLDYWGQGTLVTVSS”, “high polyreactivity”.
As to “QVQLVESGGGLVQAGGSLRLSCAASGLIFVDYTMGWYRQAPGKERELVAGISNSGNTNYADSVKGRFTISRDNAKNTVYLQMNSLKPEDTAVYYCAAVYTWYPWYPYDYWGQGTQVTVSS”, the “polyreactivity (PSR sort gate)” value is “low polyreactivity”.
As for “QVQLVESGGGLVQAGGSLRLSCAASGLIFVKNTMGWYRQAPGKERELVAGISQRGGSTYYADSVKGRFTISRDNAKNSVYLQMNILKPEDTAVFYCAAYSRTFEGHRGGYWGQGTQVTVSS”, the entry is “high polyreactivity”; as for “QVQLVESGGGLVQAGGSLRLSCAASGLIFVNYAMGWYRQAPGKERELVAAISVSGGSTYYADSVKGRFTISRDNAKNTVYLQMNSLNPEDTAVYYCNAYFRSQRYGYRVDYWGQGTQVTVSS”, “high polyreactivity”.
Regarding “QVQLVESGGGLVQAGGSLRLSCAASGLIFVRYAMGWYRQAPGKERELVATITWSGGTTYADSVKGRFTISRDNAKNTVYLQMNSLKPEDTAVYYCAVEWPAWTDSDYPVGGHAFGYWGQGTQVTVSS”, the “polyreactivity (PSR sort gate)” value is “low polyreactivity”.
For “QVQLVESGGGLVQAGGSLRLSCAASGLIFVSYAMGWYRPAPGKERELVASITDSDSSTYYADSVKGRFTISRDNAKNTVYLQMNSLKPEDTAVYYCATGGRTEIWYPTLDYWGQGTQVTVSS”, the “polyreactivity (PSR sort gate)” value is listed as “low polyreactivity”.
Next, “QVQLVESGGGLVQAGGSLRLSCAASGLIFVWYAMGWYRQAPGKERELVAAISWRGGTRYYADSVKGRFTISRDNAKNTVYLQMTSLKPEDTAVYYCARDPDTYFFPPNGYYSSGFDSWGQGTQVTVSS”: “low polyreactivity”; “QVQLVESGGGLVQAGGSLRLSCAASGLIFVWYAMGWYRQAPGKERELVAAISWRGGTTYYADSVKGRFTISRDNAKNTVYLQMNSLKPEDTAVYYCNAVGSQVDYLRYVWYDMDYWGQGTQVTVSS”: “low polyreactivity”.
With “QVQLVESGGGLVQAGGSLRLSCAASGLIFWHYAMGWYIQAPGKERELVARISYGGGSTYYADSVKGRFTISRDNAKNTVYLQMISLKPEDTSVYYCNAKYYSVSQYYWGQGTQVTVSS”, the “polyreactivity (PSR sort gate)” value is on record as “high polyreactivity”.
As for “QVQLVESGGGLVQAGGSLRLSCAASGLIFWQYAMGCYRQAPGKERELVAAISIGGSTNYADSVKGRFTISRDNAKNTVYFQMNSLKPEDTAVYYCNAAFLRQVWAGYNYWGQGTQVTVSS”, the entry is “high polyreactivity”; as for “QVQLVESGGGLVQAGGSLRLSCAASGLIFYAYAMGWYRQAPGKERELVAAISGSGGNTYYADSVKGRFTISRDNAKNTVYLQMNSLKPEDTAVYYCAADYTAAYPDSMYYWGQGTQVTVSS”, “low polyreactivity”; as for “QVQLVESGGGLVQAGGSLRLSCAASGLIFYDNMGWYRQAPGKERELVAAISSSGGSTSYADSVKGRFTISRDNAKNTVYLQMNSLKPEDTAVYYCAAQYPAYYTNSYWGQGTQVTVSS”, “low polyreactivity”.
On to “QVQLVESGGGLVQAGGSLRLSCAASGLIFYDNMGWYRQAPGKERELVAAISSSGGSTSYAYSVKGRFSISRDNAKYTVYLQMISLKREDTAVYYCAADSYRAYLGFVGFDYWGQGTQVTVSS”, for which the “polyreactivity (PSR sort gate)” value is given as “low polyreactivity”.
As for “QVQLVESGGGLVQAGGSLRLSCAASGLIFYFYVMGWYRQAPGKERELVAGIDTGSSTNYADSVKGRFTISRDNAKNTVYLQMNSLKPEDTAVYYCAADSVSKYGSDYWGQGTQVTVSS”, the entry is “low polyreactivity”; as for “QVQLVESGGGLVQAGGSLRLSCAASGLIFYGNAMGWYREAPGKERELVAAISRRGGRTYYADSVKGRFTISRDNAKKSVYLQMHSLKPEDTAVYYCAAGVPKNGQAGYDYWGQGTQVTVSS”, “high polyreactivity”.
Next, “QVQLVESGGGLVQAGGSLRLSCAASGLIFYHNAMRWYRQAPGKERELVAAMTASGGSTYYADSVKGRFTISRDNAKNTVYLQMNSLKPEDTAVYYCAADGPLDSDLDYWGQGTQVTVSS”: “low polyreactivity”; “QVQLVESGGGLVQAGGSLRLSCAASGLIFYKNAMGWYRQAPGKEREFVAAISRSGASTYYADSVKARFTISRDNAKNTVYLQMNSLKPEDTAVYYCAARAGANYRMDYWGQGTQVTVSS”: “high polyreactivity”.
As for “QVQLVESGGGLVQAGGSLRLSCAASGLIFYLYAMGWYRQAPGKEREFVAAITTSGGSTHYADSVKGRFTISRDNAKNTVYLQMNSLKPEDTAVYYCAADDYFHGPGLEFDYWGQGTQVTVSS”, the entry is “low polyreactivity”; as for “QVQLVESGGGLVQAGGSLRLSCAASGLIFYPYAMGWYRQAPGKERELVAAITSGDSTYYADSVKGRFTISRDNAKNTVYLQMNSLKPEDTAVYYCNADASYYYYHSDTVYGFDYWGQGTQVTVSS”, “low polyreactivity”; as for “QVQLVESGGGLVQAGGSLRLSCAASGLIFYPYAMGWYRQAPGKERELVAGISSSGDSTYYADSVKGRFTISRDNAKNTVYLQMNSLKPEDNAVYYCNTGWDPYGYDYWGQGTQVTVSS”, “low polyreactivity”.
As for “QVQLVESGGGLVQAGGSLRLSCAASGLIFYQYAMGWYRQAPGKERELVAAINWSGGSTYYADSVKGRFTISRDNAKNTVYLQMNSLKPEDTAVYYCAADTAFRFALTRYRPMDYWGQGTQVTVSS”, the “polyreactivity (PSR sort gate)” value was “high polyreactivity”.
